Test results as given in the supplement of paper PMC10567573.
± gives the standard deviation.

Assay: protein stability index of a GFP-peptide fusion (GPS, HEK-293T) (PSI 1-6); higher = more stable
[1] = treatment: DMSO, c terminus: a fixed tail appended
[2] = treatment: MLN4924 1 uM, 8 h, c terminus: a fixed tail appended
[3] = treatment: DMSO, c terminus: native
[4] = treatment: MLN4924 1 uM, 8 h, c terminus: native
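Further: 24-mer peptide tiles fused after GFP, lentivirally expressed, FACS-sorted into six equal bins by GFP/DsRed ratio, decoded by Illumina sequencing, PSI is the read-weighted mean bin number.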

LSEIFPGGIRGRAMALTSSMNWGI [SLC2A12]
protein stability index [1]: 1.91 ± 0.4
protein stability index [2]: 2.2 ± 0.097

LSPEVLRKDPYGKPVDMWACGVIL [CAMK2D]
protein stability index [1]: 2.74 ± 0.55
protein stability index [2]: 2.14 ± 0.71

LSQAGQKTSAALSTVGSAISRKLG [TPD52L2]
protein stability index [1]: 3.67 ± 0.22
protein stability index [2]: 3.92 ± 0.27

LSVGQYNCPGQYTFSMPSDSHVSS [CD69]
protein stability index [1]: 3.05 ± 0.28
protein stability index [2]: 3.07 ± 0.27

LTDDKQVLNTQGQKTSGQHMIQGA [DLC1]
protein stability index [1]: 5.06 ± 0.2
protein stability index [2]: 5.04 ± 0.14

LTEDYFPSVPDNAELVLLTLGQAW [DFFB]
protein stability index [1]: 2.34 ± 0.23
protein stability index [2]: 2.34 ± 0.22

LTLSAGDLGGSIYANLALSGLIEI [SLC22A15]
protein stability index [1]: 2.77 ± 0.91
protein stability index [2]: 3.43 ± 0.74

LTPLELLLRQLGRDAGATPSAAGA [ANKRD9]
protein stability index [1]: 2.42 ± 0.16
protein stability index [2]: 2.58 ± 0.23

LTPSSKEMMSQALKATFSGFTKEQ [ETS1]
protein stability index [1]: 3.87 ± 0.24
protein stability index [2]: 3.74 ± 0.19

LTPTYLNQEDAIHFHRTLKEACDQ [CPOX]
protein stability index [1]: 4.11 ± 0.25
protein stability index [2]: 4.35 ± 0.29

LTQIDGTLSTIEFQREALENSHTN [CHMP4C]
protein stability index [1]: 4.34 ± 0.25
protein stability index [2]: 4.57 ± 0.22

LVAPVLEPGKQERDVYLPAGKWRS [MYORG]
protein stability index [1]: 3.49 ± 0.16
protein stability index [2]: 3.75 ± 0.2

LVEDMQRELGRLRQQVTNHGRGTE [ZNF263]
protein stability index [1]: 3.35 ± 0.33
protein stability index [2]: 3.55 ± 0.22

LVTLPVSFAQLKNLKWLDLKDNPL [LRRC59]
protein stability index [1]: 2.29 ± 0.082
protein stability index [2]: 2.31 ± 0.23

LWEALCSQGAISEGAQRDRFPGRK [C22orf31]
protein stability index [1]: 3.11 ± 0.12
protein stability index [2]: 3.3 ± 0.32

MAEGDNRSTNLLAAETASLEEQLQ [ARL6IP1]
protein stability index [1]: 5.37 ± 0.31
protein stability index [2]: 5.43 ± 0.17

MATPDAGLPGAEGVEPAPWAQLEA [FANCE]
protein stability index [1]: 4.86 ± 0.32
protein stability index [2]: 4.96 ± 0.27

MDEAVGDLKQALPCVAESPTVHVE [TRIP13]
protein stability index [1]: 5.18 ± 0.13
protein stability index [2]: 5.01 ± 0.19

MDLLTQSLGVDTLPPPDPNPPRAE [APBB1IP]
protein stability index [1]: 4.85 ± 0.2
protein stability index [2]: 4.87 ± 0.14

MESLISAPLVKTLEKEEEKDLVMY [CDC25B]
protein stability index [1]: 4.56 ± 0.062
protein stability index [2]: 4.61 ± 0.24

MEVQHFRTIYHMFIAGLCVFIIST [SOAT2]
protein stability index [1]: 2.95 ± 0.27
protein stability index [2]: 3.18 ± 0.52

MGEDEDGLSEKNCQNKCRIALVEN [PLD5]
protein stability index [1]: 5.14 ± 0.51
protein stability index [2]: 4.82 ± 0.11

MGESSEDIDQMFSTLLGEMDLLTQ [APBB1IP]
protein stability index [1]: 4.25 ± 0.11
protein stability index [2]: 4.08 ± 0.32

MGVGKASASDGSSFVVARYFPAGN [GLIPR2]
protein stability index [1]: 3.13 ± 0.26
protein stability index [2]: 2.96 ± 0.26

MGYMLFNERMLESYLHAKKYLKPS [CARM1]
protein stability index [1]: 2.35 ± 0.17
protein stability index [2]: 2.08 ± 0.32

MHDAFEPVPILEKLPLQIDCLAAW [VPS39]
protein stability index [1]: 2.56 ± 0.34
protein stability index [2]: 2.56 ± 0.27

MIRKGGDQTSLLVVDKETDNMYRL [PDZK1]
protein stability index [2]: 3.17 ± 0.25

MKAHSFVRENVPRVLNSAKEKSST [SOAT1]
protein stability index [1]: 4.58 ± 0.12
protein stability index [2]: 4.57 ± 0.13

MKGRGQLEKPPAPNQAMVVAAAGD [TBC1D10A]
protein stability index [1]: 5 ± 0.26
protein stability index [2]: 4.94 ± 0.49

MKTFVSPEAISPDLVKKIRDFHRK [TRIM15]
protein stability index [1]: 3.17 ± 0.13
protein stability index [2]: 3.07 ± 0.16

MLEDGPHNANRGQRLLAFSRGRA [CCDC70]
protein stability index [3]: 2.99 ± 0.63
protein stability index [4]: 2.77 ± 0.41

MLHHHCRRNPELQEELQIQAAVAA [ASB7]
protein stability index [1]: 3.47 ± 0.29
protein stability index [2]: 3.59 ± 0.26

MNGEECAEDLRMLDASGEKMNGSH [IKZF1]
protein stability index [1]: 5.15 ± 0.39
protein stability index [2]: 5.31 ± 0.18

MNGHQNGLDSPPLYPSAPILGGSG [ESRRG]
protein stability index [1]: 3.91 ± 0.25
protein stability index [2]: 3.93 ± 0.3

MQPFNYVTLQCLAARALDKNKIPY [FEM1A]
protein stability index [1]: 3.25 ± 0.38
protein stability index [2]: 2.97 ± 0.31

MQRPYDSRTCIGSSHSRGPLSWAP
protein stability index [1]: 3.1 ± 0.31
protein stability index [2]: 2.94 ± 0.05

MTEPWLALGTSWTLPLQDRELGPE [CABP4]
protein stability index [1]: 3.54 ± 0.39
protein stability index [2]: 4.16 ± 0.2

MTKAGSKGGNLRDKLDGNELDLSL [LRRC59]
protein stability index [1]: 4.63 ± 0.15
protein stability index [2]: 4.63 ± 0.081

MTMIVSLAAVAWVGQQVHNLLLTY [ARL6IP1]
protein stability index [1]: 3.31 ± 0.37
protein stability index [2]: 3.25 ± 0.32

MVFSGLCPLLLGSVMAIERCIGVT [PTGFR]
protein stability index [1]: 3.4 ± 0.078
protein stability index [2]: 3.37 ± 0.41

MVGEEKMSLRNRLSKSRENPEEDE [SOAT1]
protein stability index [1]: 5.52 ± 0.16
protein stability index [2]: 5.44 ± 0.21

MWVRFRAFEAARDLDACALVRGHR [ZSWIM9]
protein stability index [1]: 2.17 ± 0.25
protein stability index [2]: 2.06 ± 0.22

NDYIVPRHCPELAEMSRVSIRILD [HNF4A]
protein stability index [1]: 3.08 ± 0.19
protein stability index [2]: 3.29 ± 0.24

NEFLCTLQKKLDNLQCLYCEKTFR [ZNF277]
protein stability index [1]: 2 ± 0.4
protein stability index [2]: 2.38 ± 0.32

NEFLEAFRLVEKSCPEGDASECPQ [PPEF2]
protein stability index [1]: 5 ± 0.75
protein stability index [2]: 5.17 ± 0.32

NEKITMQNLNDRLASYLEKVRALE [KRT13]
protein stability index [1]: 2.86 ± 0.4
protein stability index [2]: 3 ± 0.32

NESSLASTLKTLLFFTALMITVPI [VMA21]
protein stability index [1]: 2.92 ± 0.19
protein stability index [2]: 3.07 ± 0.2

NGDDMFVTFAAMQAQQGRSSLVWL [MCOLN1]
protein stability index [1]: 3.18 ± 0.54
protein stability index [2]: 2.83 ± 0.48

NIYENGDVCISILHPPVDDPQSGE [UBE2R2]
protein stability index [1]: 4.37 ± 0.1
protein stability index [2]: 4.55 ± 0.087

NKDGIGEICLWGRHIFMGYLESET [ACSBG2]
protein stability index [1]: 2.29 ± 0.46
protein stability index [2]: 2.02 ± 0.31

NKKHIHSRSTLECAYRTHLVAGIG [SMG5]
protein stability index [1]: 2.37 ± 0.29
protein stability index [2]: 2.39 ± 0.19

NLAGFILGCQGAQFVSSVPRCDLV [FAM189A2]
protein stability index [1]: 2.66 ± 0.59
protein stability index [2]: 2.58 ± 0.57

NLDANLAFASFTSGVVRIWDLRDQ [TLE6]
protein stability index [1]: 2.3 ± 0.28
protein stability index [2]: 2.36 ± 0.33

NLPSGGKGFKLRRQPSEPKRSCC [RAB22A]
protein stability index [3]: 3.89 ± 0.34
protein stability index [4]: 4 ± 0.35

NMDPKAAEEEEEEEEEVDLACTPT [CCND1]
protein stability index [1]: 5.6 ± 0.27
protein stability index [2]: 5.64 ± 0.13

NNQDFIPFTKKRVGVDRAFPLKPM [ZC2HC1C]
protein stability index [1]: 2.85 ± 0.39
protein stability index [2]: 3.26 ± 0.45

NNWYYISPRLTFQCLEDLVNHYSE [SLA]
protein stability index [1]: 2.44 ± 0.35
protein stability index [2]: 2.23 ± 0.38

NPLICPVCTKYNLRITSGVVVCQC [RPAIN]
protein stability index [1]: 3.91 ± 0.32
protein stability index [2]: 4.16 ± 0.25

NPNGGSFEEVLSSTAHASAQSLAG [TPD52L1]
protein stability index [1]: 4.76 ± 0.12
protein stability index [2]: 4.9 ± 0.11

NPVYYGPSDFFIGAVIEVFGHRFI [EFHC1]
protein stability index [1]: 3.04 ± 0.7
protein stability index [2]: 2.44 ± 0.79

NQGFLKVERYHNLCQKQVKAQLPR [FBXO28]
protein stability index [1]: 2.76 ± 0.47
protein stability index [2]: 2.64 ± 0.45

NQGTQITVEDLFYNIATRRKALKN [MLH1]
protein stability index [1]: 3.29 ± 0.32
protein stability index [2]: 3.37 ± 0.48

NQLSQAELDELASKAPVLTYGQPK [EFHC1]
protein stability index [1]: 4.78 ± 0.11
protein stability index [2]: 4.79 ± 0.072

NRDEHSSRGYRNHRSSRETRDYAP [RBMY1A1]
protein stability index [1]: 4.74 ± 0.072
protein stability index [2]: 4.63 ± 0.095

NRELWKEFSSVGTEMIITKAGRRM [TBX6]
protein stability index [1]: 2.88 ± 0.27
protein stability index [2]: 3.21 ± 0.4

NSEADQLGKIFDLIGLPPEDDWPR [CDK4]
protein stability index [1]: 3.7 ± 0.35
protein stability index [2]: 3.92 ± 0.23

NSMAPHPARDYVVLRTWRTNLPKG [DLC1]
protein stability index [1]: 2.48 ± 0.59
protein stability index [2]: 2.64 ± 0.21

NSSPRVMQRKQSLGKPDQKDLNEN [DLC1]
protein stability index [1]: 5.09 ± 0.18
protein stability index [2]: 4.88 ± 0.28

NVLHGYPKDIYSSFGFPRTVKHID [MMP1]
protein stability index [1]: 2.63 ± 0.098
protein stability index [2]: 2.74 ± 0.24

NVVTCAAGILSNLTCNNYKNKMMV [CTNNB1]
protein stability index [1]: 2.69 ± 0.41
protein stability index [2]: 2.46 ± 0.24

NVYPEMRVYNNTLTYGEVRNSKAS [GALNT9]
protein stability index [1]: 3.94 ± 0.22
protein stability index [2]: 4.14 ± 0.3

PAATWNLEEKRLTWRLPDVSEAGG [FCHO1]
protein stability index [1]: 4.49 ± 0.24
protein stability index [2]: 4.58 ± 0.25

PAFRFLTKMWHPNIYETGDVCISI [CDC34]
protein stability index [1]: 3.2 ± 0.42
protein stability index [2]: 3.04 ± 0.59

PAHRFVLAAGSAVFDAMFNGGMAT [BTBD1]
protein stability index [1]: 2.49 ± 0.85
protein stability index [2]: 2.24 ± 0.55

PANCPACREPSPKMDFKTNILLKN [TRIM43]
protein stability index [1]: 3.38 ± 0.25
protein stability index [2]: 3.52 ± 0.21

PAPALAPDQLPQNNTLVALPIVAI [FBXO28]
protein stability index [1]: 2.91 ± 0.23
protein stability index [2]: 2.68 ± 0.33

PAQLSCLPYLEHVGHNHTYNMAPS [NFE2L1]
protein stability index [1]: 2.91 ± 0.25
protein stability index [2]: 2.96 ± 0.28

PAQPGADSSFPPALAEGYRYPELD [TBX6]
protein stability index [1]: 5.14 ± 0.18
protein stability index [2]: 5.01 ± 0.36

PAVATLCDLFDREIVVTISWAKSI [ESRRA]
protein stability index [1]: 2.65 ± 0.56
protein stability index [2]: 3.36 ± 0.85

PCIPPGFRNLVADRVLNYTSWSQH [SPAG8]
protein stability index [1]: 2.14 ± 0.15
protein stability index [2]: 2.37 ± 0.27

PCPEDASTPRPPEASSSPPEGSQD [TLE6]
protein stability index [1]: 5.52 ± 0.16
protein stability index [2]: 5.53 ± 0.17

PDALSDVGEVPYWVLEPVLEGWRP [ELOA2]
protein stability index [1]: 3.07 ± 0.26
protein stability index [2]: 3.13 ± 0.54

PDFCHKFLPGYVGGIQEGAVTPAG [DHCR7]
protein stability index [1]: 3.57 ± 0.32
protein stability index [2]: 3.6 ± 0.11

PEARYLFLLDVIPVDGARYRWQGR [TBX6]
protein stability index [1]: 2.08 ± 0.27
protein stability index [2]: 2.09 ± 0.31

PEEFSLLKLQTKDGHRPEWTFYPR [SPATS1]
protein stability index [1]: 2.76 ± 0.32
protein stability index [2]: 2.87 ± 0.49

PEGSQDRNTSWGVVQEPPGRASRF [TLE6]
protein stability index [1]: 4.83 ± 0.23
protein stability index [2]: 4.57 ± 0.14

PEPEDEPGGPGAMTESLEASEFLE [RSPH3]
protein stability index [1]: 5.7 ± 0.12
protein stability index [2]: 5.48 ± 0.2

PESPGGTTTLEGSPSVPCIFCEEH [ZNF277]
protein stability index [1]: 4.82 ± 0.3
protein stability index [2]: 4.82 ± 0.16

PGAFGTILTFLRAGKLRLLREMCA [KCNG1]
protein stability index [1]: 2.84 ± 0.33
protein stability index [2]: 2.8 ± 0.062
